# Measurements from the RNAGym collection of RNA variant scans (doi:10.1073/pnas.2313332121).
# B1: TPR t1 (parent)
# chain: GACCAAUCUGCCCUCAGAGCUCGAGAACAUCUUCGGAUGCAGAGGAGGCAGGCUUCGGUGGCGCGAUAGCGCCAACGUCCUCAACCUCCAAUGCAUCCCACCACAUGAUGAUGCCUGAAGAGCCUUGGUUUUUUG
# Variants of: B1
# Assay: polymerase ribozyme fitness, log enrichment relative to wild type (log ratio); higher = more active; in vitro selection for triplet polymerase activity
# Method in brief: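 Both subunits of a heterodimeric triplet polymerase ribozyme were given their own mutant library, built by PCR and transcribed. Each library was annealed with a biotinylated primer, the partner subunit and triplets, incubated frozen at −7 °C, and its extended constructs gel-excised, captured on streptavidin beads and amplified by RT-PCR, all in one round done in triplicate. Fitness is the logarithm of genotype enrichment relative to wild-type enrichment, with replicates averaged by inverse-variance weighting. That logarithm is base 2, and Illumina-sequenced genotypes needed ≥10 input reads and ≥1 read per output.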
row,Variant,polymerase ribozyme fitness (log ratio)
1,A75G G128A,-1.5
2,A74G A75U U106G,-1.96
3,C76U A83U,-0.0435
4,A74G C102U A119U,-0.954
5,A74U G120A C124G,2
6,U78A G135U,-0.889
7,G77A U81C,0.0727
8,A74C C104A C114A,-4.14
9,A75U G113A G127C,-2.56
10,C73U C114U,-1.31
11,C73U C114A,-1.19
12,U78A G117U,-2.81
13,C73G U78A,-0.494
14,C76A C85G,-1.03
15,A75G G93C U116A,-4.1
16,C76U C94U C104U U131C,-0.407
17,A74C A100C,-1.06
18,U78A G110A,-1.32
19,C73G G120C U130A,-0.0194
20,C76G A119U,-1.37
21,G77C C85U,-1.99

row,Variant,polymerase ribozyme fitness (log ratio)
1,A74G C101A,-0.767
2,A74U A84U A91C C102G G113U C115G A118G G128U,-7.73
3,U78C A83U G117C A119U,-3.98
4,G77A U92G C94A C99G A111C,-8.36
5,C73G C104G A121G,-5.73
6,C73G C85U G117C U133A,-6.98
7,A74G C102U,-2.11
8,A74U A105C,-3.15
9,C73G C85G G120A,-2.18
10,G77A C79G A100U G113U C123G,-6.77
11,U78A C94G C101A,-1.93
12,C76G U130A,-0.718
13,A75G C123U U125G U126A,0.149
14,C73U U130C,0.504
15,C73U C94U U129A,-1.17
16,A74U U92A,-3.82
17,A74U U92G,-3.01
18,A74U U87G U106G A121U,-0.122
19,C76G U106C G128C,-3.27
20,G77A C123G G135U,0.853
21,G77U C89A U109A,-6.3

row,Variant,polymerase ribozyme fitness (log ratio)
1,A75U C97U,-0.863
2,G77C U78C A105G A119G,-1.64
3,A74G C86U U109A U126G,-5.87
4,A75G G120A A121C,0.562
5,G77C U96C G117A,-2.46
6,G77U C114G C124G,-1.15
7,C76U C102U,-2.21
8,A74U C101U,-0.51
9,C76A U106A,-1.33
10,A74C U96G,-1.28
11,A74C U92C G127A,-2.3
12,A74C G113U U133A,-3.26
13,A75G U96A A105G,-6.14
14,C76G C89U,-0.321
15,U78A U133A,-0.443
16,C73U A108U,-5.75
17,C73U C101U G122A,-0.395
18,A74U U129A,-1.52
19,C73U U96G,-0.308
20,C73G C82A U92A,-4.06
21,A74C U87G U129C,-0.576

row,Variant,polymerase ribozyme fitness (log ratio)
1,C73U U109A,-4.25
2,C73U G113C,-1.54
3,C73U G113U,-3.18
4,A74U C89G U112A,-2.2
5,C76G G113U,-4.13
6,G77U A103C,-4.83
7,A74U A84U U129G,-1.9
8,C73G U112A G117U,-2.94
9,A74C,-0.272
10,A74U,-0.247
11,A74G,0.0609
12,G77C C79U,0.563
13,U78A A95U,-0.329
14,C76A A90G,-0.633
15,U78A G113A,-1.22
16,U78A G113U,-3.98
17,C73U A84C U92G U112A,-2.54
18,C73U C104A,-1.22
19,G77A U132C,-0.208
20,A74U G128C,-2.66
21,G77C A121U,0.189
